Laboratory results: doi:10.1101/2024.12.11.628028 (bioRxiv, 2024)

Target: the molecule itself
Assay: crystal structure

B1: Nicotinamide phosphoribosyltransferase (NAMPT), human, with N terminal His-tag (enzyme)
chain: MNPAAEAEFNILLATDSYKVTHYKQYPPNTSKVYSYFECREKKTENSKLRKVKYEETVFYGLQYILNKYLKGKVVTKEKIQEAKDVYKEHFQDDVFNEKGWNYILEKYDGHLPIEIKAVPEGFVIPRGNVLFTVENTDPECYWLTNWIETILVQSWYPITVATNSREQKKILAKYLLETSGNLDGLEYKLHDFGYRGVSSQETAGIGASAHLVNFKGTDTVAGLALIKKYYGTKDPVPGYSVPAAEHSTITAWGKDHEKDAFEHIVTQFSSVPVSVVSDSYDIYNACEKIWGEDLRHLIVSRSTQAPLIIRPDSGNPLDTVLKVLEILGKKFPVTENSKGYKLLPPYLRVIQGDGVDINTLQEIVEGMKQKMWSIENIAFGSGGGLLQKLTRDLLNCSFKCSYVVTNGLGINVFKDPVADPNKRSKKGRLSLHRTPAGNFVTLEEGKGDLEEYGQDLLHTVFKNGKVTKSYSFDEIRKNAQLNIELEAAHH
binding result: binds
